Drawing on US20180066242A1, this text covers ASCL1 mRNA by qPCR, +rapamycin/-rapamycin ratio, IL1RN mRNA by qPCR, +rapamycin/-rapamycin ratio and MYOD1 mRNA by qPCR, +rapamycin/-rapamycin ratio for 1 substance.

The target of the assay is dCas9(C)-FKBP-2×NLS-VP64 (split-4, N863A) (Streptococcus pyogenes). Kind of assay: cell-based or functional assay.

In the case of “dCas9(N)-FRB-2×NES (split-4, D10A) (from UniProt Q99ZW2 1-535; P42345 2021-2113; Q05397 518-525)”, the ASCL1 mRNA by qPCR, +rapamycin/-rapamycin ratio came out at 77; the IL1RN mRNA by qPCR, +rapamycin/-rapamycin ratio turned out to be 649; the MYOD1 mRNA by qPCR, +rapamycin/-rapamycin ratio came to 29.
